The target of one assay is T1, ABCE1 (Saccharolobus solfataricus, UniProt Q980K5, K177C/T393C).
T1 construct: gene SSO0287; full length with N-terminal FeS cluster domain, C-terminal His6 tag, pSA4 vector, expressed in E. coli BL21(DE3) pRARE; about 70 kDa
The experiment in a line: malachite green ATPase assay. In kind it is biochemical. The conditions noted are these: site II variant, before and after Cy3B/Atto647N labelling of the protein; 5 mM ATP, 10 mM MgCl2, pH 7.5, 80 °C.

Assay [1] deals with 30S ribosomal subunit from Sulfolobus solfataricus (Sulfolobus solfataricus). Nature of the assay: burst-length (diffusion) analysis in single-molecule ALEX/smFRET; titration of 30S; percentage of 30S-bound ABCE1 at each concentration; 2 mM AMP-PNP, 73°C, 10 min.
For assay [2] the target is unchanged. The experiment in a line: dissociation time course by burst-length analysis in single-molecule ALEX/smFRET; 30 nM labelled ABCE1 with 25 μM AMP-PNP and 12.5 μM 30S, 73°C 10 min; then 630-fold dilution with 2 μM unlabelled ABCE1, dissociation followed at 73°C for 0-10 min; the association rate is estimated from this rate and the KD.

The text below walks through data of PMC6656783, “ABCE1 Controls Ribosome Recycling by an Asymmetric Dynamic Conformational Equilibrium” (Cell Reports, 2019).

pKd: −log10 of the molar value.

By pKd is commonly meant the negative decadic logarithm of the Kd, by convention in mol/L. A higher pKd goes with a small Kd. The koff is a measure of how fast the partners let go of each other. In general, kon refers to a measure of how fast the partners come together.

Regarding `Nc1ncnc2c1ncn2[C@@H]1O[C@H](COP(=O)(O)OP(=O)(O)OP(=O)(O)O)[C@@H](O)[C@H]1O` [ATP], the “malachite green ATPase assay” value at ABCE1 is “verified by determining the basal ATP hydrolysis, which was similar to the wild type”.

“ABCE1^K177C/T393C (site II variant), labelled with Cy3B and Atto647N (enzyme)”: in assay [1], the negative logarithm of the Kd (pKd) was 7.70. In addition, in assay [2], the koff was 0.00833 s⁻¹ and the association rate constant (kon) was 400000 M⁻¹ s⁻¹.
